# Reference: paper PMC12403130, “A β-cap on the FliPQR protein-export channel acts as the cap for initial flagellar rod assembly” (Proceedings of the National Academy of Sciences of the …, 2025)
# B1: FliP (natural protein)
# chain: QLPGLISQPLAGGGQSWSLSVQTLVFITSLTFLPAILLMMTSFTRIIIVFGLLRNALGTPSAPPNQVLLGLALFLTFFIMSPVIDKIYVDAYQPFSEQKISMQEALDKGAQPLRAFMLRQTREADLALFARLANSGPLQGPEAVPMRILLPAYVTSELKTAFQIGFTIFIPFLIIDLVIASVLMALGMMMVPPATIALPFKLMLFVLVDGWQLLMGSLAQSFYS
# notes: FliP, Salmonella enterica serovar Typhimurium; signal peptide (residues 1 to 21) cleaved between Ala-21 and Gln-22 during membrane insertion; the mature protein begins at Gln-22; Five copies of FliP stand in the FliP5-FliQ4-FliR1 complex; also called mature FliP; FliP^1; source: membranes solubilised with 1% LMNG; reconstituted in a peptidisc
# Target: the molecule itself
# Experiment: cryo-EM structure; FliP, FliQ and FliR-His co-expressed in Salmonella SJW1368, complex solubilised with LMNG, purified and reconstituted in a peptidisc; single-particle analysis, C1 symmetry, 3.0 Å, closed form
protein,measurement,value
B1,stoichiometry N,5
